Five molecules from article PMC1166539, “Determination of thermodynamic parameters of Xerocomus chrysenteron lectin interactions with N-acetylgalactosamine and Thomsen-Friedenreich antigen by isothermal titration calorimetry” (BMC Biochemistry, 2005) can be followed below.

First the molecules themselves.
T1: XCL (XCLtag), Xerocomus chrysenteron lectin (Xerocomellus chrysenteron, UniProt Q8WZC9)
T1 construct: recombinant, E. coli BL21(DE3); homotetramer
T1 sequence (Q8WZC9 1-143): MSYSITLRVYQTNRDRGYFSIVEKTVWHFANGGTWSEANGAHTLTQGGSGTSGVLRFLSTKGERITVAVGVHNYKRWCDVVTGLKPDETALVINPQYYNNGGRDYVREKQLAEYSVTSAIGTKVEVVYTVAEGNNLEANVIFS

B1: fetuin from fetal bovine serum (natural protein, UniProt P12763 19-359, looked up)
chain: IPLDPVAGYKEPACDDPDTEQAALAAVDYINKHLPRGYKHTLNQIDSVKVWPRRPTGEVYDIEIDTLETTCHVLDPTPLANCSVRQQTQHAVEGDCDIHVLKQDGQFSVLFTKCDSSPDSAEDVRKLCPDCPLLAPLNDSRVVHAVEVALATFNAESNGSYLQLVEISRAQFVPLPVSVSVEFAVAATDCIAKEVVDPTKCNLLAEKQYGFCKGSVIQKALGGEDVRVTCTLFQTQPVIPQPQPDGAEAEAPSAVPDAAGPTPSAAGPPVASVVVGPSVVAVPLPLHRAHYDLRHTFSGVASVESSSGEAFHVGKTPIVGQPSIPGGPVRLCPGRIRYFKI
modifications: three carbohydrate units O-linked to Thr or Ser residues and three complex glycans N-linked to Asn residues (a fourth O-linked residue may exist); exposed Gal residues linked to sialic acid residues
notes: fetuin (fetuin-A, alpha-2-HS-glycoprotein), bovine, from fetal bovine serum; glycoprotein bearing the Thomsen-Friedenreich antigen motif; also called native fetuin; source: bought: Sigma (from fetal bovine serum)
B2: asialofetuin from fetal bovine serum (natural protein, UniProt P12763 19-359, looked up)
chain: B1 chain
modifications: O-linked and N-linked glycans as in fetuin, but the sialic acid residues are absent
notes: fetuin (fetuin-A, alpha-2-HS-glycoprotein), bovine, from fetal bovine serum, without sialic acids (asialofetuin); Same polypeptide as fetuin; it differs only in lacking sialic acid on the glycans; source: bought: Sigma (from fetal bovine serum)
B3: Xerocomus chrysenteron lectin with histidine tag and TEV site (natural protein, UniProt Q8WZC9 1-143, looked up)
chain: T1 sequence (Q8WZC9 1-143)
notes: lectin from the mushroom Xerocomus chrysenteron (XCL); expressed as a fusion of histidine tag, TEV site and XCL; The fits used the monomer concentration; also called XCL; XCLtag

For assay [1], the target named is T1, XCL (XCLtag), Xerocomus chrysenteron lectin. As to the kind of experiment: isothermal titration calorimetry. Type of assay: binding. Conditions: 25 mM sodium phosphate pH 7, 27°C.
Assay [2] deals with B3. As to the kind of experiment: ITC; 2 mM fetuin or asialofetuin titrated (38 injections of 5 ul) into 0.25 mM XCLtag in the cell; 27°C; 25 mM Na2HPO4/NaH2PO4, pH 7; XCL monomer concentration used in the fit. Conditions: both partners purified. In general terms: Isothermal titration calorimetry measures the heat released or taken up as one component is titrated into another.
Assay [3] deals with B3. Described as above. Conditions: both partners purified. The source holds these as a separate data set.
Assay [4] has as its target B1. The assay is described as above. Conditions: both partners purified.
Assay [5] concerns the target B2. Described as above. Conditions: both partners purified.

`CC(=O)N[C@H]1C(O)O[C@H](CO)[C@H](O)[C@@H]1O` (some centres unmarked) [N-acetylgalactosamine]: the “Ka, M^-1” value in assay [1] (no PEG, per monomer, abstract prints Kd 5.2 μM, inconsistent with this Ka (reciprocal 5.2 mM)) was 192 ± 5. In the case of `CC(=O)N[C@H]1C(O)O[C@H](CO)[C@@H](O[C@@H]2O[C@H](CO)[C@H](O)[C@H](O)[C@H]2O)[C@@H]1O` (some centres unmarked) [N-acetyllactosamine], in assay [1] (significant fitting errors stated for Ka below 100 M^-1, read-out: affinity constant (converted)), the Kd is approximately 20 mM. What is called stoichiometry N is a count of units in the complex or per binding partner. With B1, the “stoichiometry N” value in assay [2] was 0.23. The dH in assay [3] was -21.5 ± 0.5 kcal/mol.

On to B2, for which, in assay [2], the “stoichiometry N” value was determined as 0.23. The dH in assay [3] is -16.8 ± 2.5 kcal/mol.

Take B3: the results for the Ka in assay [4] and in assay [5] were 590000 ± 1.4 M⁻¹ and 2.59e+06 ± 0.6 M⁻¹, respectively.
